Assay results: the supplement of paper PMC10724198
± gives the standard deviation of the averaged measurements.

Tests used:
Saccharomyces cerevisiae [1] = experiment: protein stability index of tFT-peptide fusion (C-terminal peptide) (PSI (0-1 scale)); higher = more stable (slower turnover)
Experimental: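 MPS profiling in S. cerevisiae of the tFT-X12 degron library: putative degron peptides plus stable controls, 12 aa, fused to the C-terminus of a sfGFP-mCherry timer. Cells are FACS-sorted into 8 mCherry/sfGFP bins and deep-sequenced. PSI runs from 0 (unstable) to 1 (stable). Backgrounds are wild type, das1Δ and doa10Δ at 30 °C, and wild type, das1Δ, cdc34-1 and cdc53-1 at 37 °C; 2-3 technical replicates each.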

Saccharomyces cerevisiae [2] = experiment: as above; conditions: genetic background: wild type; temperature: 30 C
[3] = genetic background: cdc34-1, temperature: 37 C
[4] = genetic background: cdc53-1, temperature: 37 C
[5] = genetic background: das1 deletion, temperature: 30 C
[6] = genetic background: das1 deletion, temperature: 37 C
[7] = genetic background: doa10 deletion, temperature: 30 C
[8] = genetic background: wild type, temperature: 30 C
[9] = genetic background: wild type, temperature: 37 C
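Also: PSI is a weighted mean of sequencing reads over stability bins, variants kept only with over 10 reads, mCherry proximal and sfGFP distal, peptide attached via GGGS linker.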

Sequence | protein stability index (Saccharomyces cerevisiae [1]; [3]) | protein stability index (Saccharomyces cerevisiae [1]; [4]) | protein stability index (Saccharomyces cerevisiae [1]; [5]) | protein stability index (Saccharomyces cerevisiae [1]; [6]) | protein stability index (Saccharomyces cerevisiae [1]; [7]) | protein stability index (Saccharomyces cerevisiae [1]; [8]) | protein stability index (Saccharomyces cerevisiae [1]; [9]) | protein stability index (Saccharomyces cerevisiae [2])
ILCVEFFVSVSV | 0.0684 ± 0.008 | 0.2486 ± 0.0024 | 0.163 ± 0.025 | 0.277 ± 0.0064 | 0.136 ± 0.01 | 0.16 ± 0.0059 | 0.23 ± 0.021 | 0.218 ± 0.0027
LLLRQVFSLGVF | 0.549 ± 0.048 | 0.64 ± 0.023 | 0.558 ± 0.011 | 0.6741 ± 0.0063 | 0.104 ± 0.018 | 0.142 ± 0.014 | 0.312 ± 0.021 | 0.162 ± 0.0081
PLRVFFLVAFCL | 0.451 ± 0.009 | 0.4799 ± 0.0037 | 0.372 ± 0.024 | 0.535 ± 0.015 | 0.318 ± 0.026 | 0.326 ± 0.05 | 0.471 ± 0.013 | 0.383 ± 0.0073
SSAPPTLHTRPS | 0.642 ± 0.027 | 0.7092 ± 0.0049 | 0.662 ± 0.023 | 0.686 ± 0.012 | 0.664 ± 0.0071 | 0.6631 ± 0.0044 | 0.681 ± 0.0066 | 0.539 ± 0.059
FFCCRLPCLFVL | 0.369 ± 0.016 | 0.407 ± 0.0051 | 0.363 ± 0.027 | 0.4824 ± 0.0016 | 0.174 ± 0.0061 | 0.174 ± 0.011 | 0.194 ± 0.0073 | 0.252 ± 0.022
NKYSMQNVLKSF | 0.7 ± 0.034 | 0.711 ± 0.02 | 0.632 ± 0.025 | 0.752 ± 0.017 | 0.249 ± 0.06 | 0.323 ± 0.025 | 0.552 ± 0.049 | 0.418 ± 0.023
AGGVNWWSSWRV | 0.739 ± 0.049 | 0.767 ± 0.0082 | 0.648 ± 0.015 | 0.775 ± 0.011 | 0.6591 ± 0.0032 | 0.669 ± 0.014 | 0.78 ± 0.037 | 0.7454 ± 0.006
LIRLCVAPMVCR | 0.455 ± 0.02 | 0.48 ± 0.0056 | 0.349 ± 0.023 | 0.5145 ± 0.0016 | 0.32 ± 0.005 | 0.349 ± 0.02 | 0.485 ± 0.011 | 0.438 ± 0.015
GVSRRWFSLRCI | 0.627 ± 0.039 | 0.717 ± 0.015 | 0.612 ± 0.029 | 0.75 ± 0.013 | 0.125 ± 0.009 | 0.15 ± 0.011 | 0.2424 ± 0.0022 | 0.214 ± 0.0074
LKKTLNGRRKMI | 0.626 ± 0.019 | 0.73 ± 0.042 | 0.638 ± 0.048 | 0.736 ± 0.015 | 0.239 ± 0.063 | 0.282 ± 0.036 | 0.373 ± 0.02 | 0.416 ± 0.037
VMYRGVRISWFL | 0.576 ± 0.036 | 0.582 ± 0.008 | 0.424 ± 0.021 | 0.504 ± 0.014 | 0.343 ± 0.04 | 0.354 ± 0.036 | 0.449 ± 0.0086 | 0.38459 ± 6.1e-05
TFRVRRQKNRNM | 0.628 ± 0.021 | 0.692 ± 0.039 | 0.631 ± 0.022 | 0.725 ± 0.013 | 0.0838 ± 0.015 | 0.099 ± 0.013 | 0.217 ± 0.012 | 0.236 ± 0.012
FGLMCFIFYVLV | 0.2 ± 0.018 | 0.331 ± 0.03 | 0.236 ± 0.021 | 0.3756 ± 0.0017 | 0.223 ± 0.016 | 0.225 ± 0.018 | 0.337 ± 0.0078 | 0.307 ± 0.057
WQSFRDKLIKGN | 0.646 ± 0.044 | 0.716 ± 0.026 | 0.643 ± 0.028 | 0.754 ± 0.041 | 0.188 ± 0.034 | 0.204 ± 0.036 | 0.3754 ± 0.0012 | 0.264 ± 0.071
LWLFIVCWVGCV | 0.234 ± 0.017 | 0.301 ± 0.044 | 0.201 ± 0.019 | 0.339 ± 0.014 | 0.1847 ± 0.00077 | 0.177 ± 0.025 | 0.31 ± 0.0052 | 0.247 ± 0.033
LWFRCVRMQACR | 0.47 ± 0.031 | 0.51569 ± 0.00022 | 0.411 ± 0.019 | 0.5101 ± 0.0028 | 0.42 ± 0.025 | 0.41 ± 0.015 | 0.492 ± 0.0094 | 0.507 ± 0.032
CLFFLVYELSIL | 0.256 ± 0.017 | 0.352 ± 0.048 | 0.257 ± 0.023 | 0.434 ± 0.016 | 0.2162 ± 0.00051 | 0.246 ± 0.0069 | 0.387 ± 0.0045 | 0.317 ± 0.021
CQVSEWIRYRFL | 0.681 ± 0.074 | 0.743 ± 0.01 | 0.637 ± 0.034 | 0.734 ± 0.018 | 0.247 ± 0.0032 | 0.252 ± 0.0098 | 0.386 ± 0.016 | 0.417 ± 0.02
PRLRPQTVAFLS | 0.68 ± 0.038 | 0.732 ± 0.013 | 0.651 ± 0.011 | 0.721 ± 0.013 | 0.28 ± 0.02 | 0.313 ± 0.016 | 0.5179 ± 0.001 | 0.2648 ± 0.0012
GLYLVFMGFVPC | 0.471 ± 0.019 | 0.52714 ± 4.2e-05 | 0.33 ± 0.053 | 0.575 ± 0.032 | 0.3169 ± 0.0022 | 0.325 ± 0.034 | 0.505 ± 0.0082 | 0.47 ± 0.029
RYLCLTPALYLS | 0.45 ± 0.014 | 0.5588 ± 0.0053 | 0.509 ± 0.027 | 0.621 ± 0.0072 | 0.125 ± 0.017 | 0.113 ± 0.012 | 0.157 ± 0.016 | 0.151 ± 0.11
VYFRYWLLVVVF | 0.0945 ± 0.029 | 0.106 ± 0.022 | 0.148 ± 0.034 | 0.215 ± 0.0027 | 0.117 ± 0.029 | 0.101 ± 0.026 | 0.15 ± 0.0062 | 0.129 ± 0.019
ILFVCVCVLHVG | 0.112 ± 0.0052 | 0.198 ± 0.012 | 0.17 ± 0.027 | 0.307 ± 0.0048 | 0.121 ± 0.013 | 0.141 ± 0.019 | 0.252 ± 0.021 | 0.242 ± 0.025
TPRQYVVSLSLC | 0.579 ± 0.027 | 0.657 ± 0.033 | 0.587 ± 0.039 | 0.703 ± 0.015 | 0.131 ± 0.0045 | 0.123 ± 0.0062 | 0.227 ± 0.0063 | 0.19 ± 0.067
PVGLMKRFRLFI | 0.698 ± 0.088 | 0.727 ± 0.02 | 0.615 ± 0.031 | 0.716 ± 0.023 | 0.332 ± 0.012 | 0.364 ± 0.031 | 0.626 ± 0.018 | 0.455 ± 0.058
GALWPGALRFLN | 0.587 ± 0.045 | 0.747 ± 0.05 | 0.671 ± 0.023 | 0.81 ± 0.022 | 0.101 ± 0.014 | 0.104 ± 0.015 | 0.195 ± 0.035 | 0.171 ± 0.026
VRVLPFCWCIVR | 0.177 ± 0.03 | 0.14 ± 0.0084 | 0.188 ± 0.028 | 0.288 ± 0.005 | 0.263 ± 0.019 | 0.187 ± 0.017 | 0.259 ± 0.046 | 0.274 ± 0.0053
MMEMMTKSNRIP | 0.683 ± 0.029 | 0.737 ± 0.015 | 0.63 ± 0.016 | 0.709 ± 0.04 | 0.4 ± 0.02 | 0.446 ± 0.074 | 0.639 ± 0.016 | 0.517 ± 0.025
CWSSVGLSVCGC | 0.676 ± 0.026 | 0.7508 ± 0.0058 | 0.619 ± 0.031 | 0.7193 ± 0.0065 | 0.597 ± 0.037 | 0.599 ± 0.012 | 0.693 ± 0.024 | 0.601 ± 0.16
RKVWSLCWFVHL | 0.49 ± 0.071 | 0.617 ± 0.012 | 0.512 ± 0.012 | 0.65 ± 0.008 | 0.0695 ± 0.0078 | 0.0716 ± 0.015 | 0.0795 ± 0.0077 | 0.116 ± 0.0023
